Biological target: the molecule itself
Assay: analytical size exclusion chromatography and analytical ultracentrifugation (sedimentation equilibrium); self-association (dimer) not seen
Description: Bovine serum albumin (66 kDa, Vᵣ=9.861 ml), carbonic anhydrase (29 kDa, Vᵣ=12.35 ml), myoglobin (17.05 kDa, Vᵣ=13.244 ml), cytochrome C (12.4 kDa, Vᵣ=14.11 ml), and aprotinin (6.5 kDa, Vᵣ=16.35 ml) were used as protein size standards for calibration of the column while the void volume was determined with blue dextran (V₀=8.08 ml).
Sedimentation equilibrium experiments were performed using an XL-I analytical ultracentrifuge and a Ti-60 rotor equipped with a UV/Vis as well as interference detector (Beckman, Fullerton, Calif.). An 0.8 mg/ml solution of the purified recombinant Blc in 150 mM NaCl, 1 mM EDTA, 100 M Tris/HCl pH 8.0 was applied to six-sector 12 mm path length cells. The samples were centrifuged at 25000 rpm for 72 h at 4° C., until equilibrium was reached, whereby the protein gradient was measured by UV absorption at 280 nm.

B1: recombinant Blc (Escherichia coli bacterial lipocalin, Cys1Ala/Cys113Ser, C-terminal Strep-tag II, as encoded on pBlc2) (other)
chain: ASSPTPPRGVTVVNNFDAKRYLGTWYEIARFDHRFERGLEKVTATYSLRDDGGLNVINKGYNPDRGMWQQSEGKAYFTGAPTRAALKVSFFGPFYGGYNVIALDREYRHALVSGPDRDYLWILSRTPTISDEVKQEMLAVATREGFDVSKFIWVQQPGSAWSHPQFEK
notes: The construct has 168 residues (159 + 9 tag residues)
Q: Does B1 bind?
A: Result: no binding (tested: about 40 µM)

Reference: patent US20130331550A1 (TECHNISCHE UNIVERSITAET MUENCHEN, published 2013)
